This note sets out measurements from PMC10384689.

Substrate in this series: Oc1ccc(/C=C/c2cc(O)cc(O)c2)cc1
Kind of series: purified protein. The settings on record: PBS pH 7.4, 30 °C, 10 min, 10 uM FAD, 1 mM NADH, 1 uM HpaB, 1 uM HpaC, apparent.

B1: EcHpaBC (E. coli 4HPA3H; HpaB + HpaC) (Escherichia coli) (protein)
chain: MKPEDFRASTQRPFTGEEYLKSLQDGREIYIYGERVKDVTTHPAFRNAAASVAQLYDALHKPEMQDSLCWNTDTGSGGYTHKFFRVAKSADDLRHERDAIAEWSRLSYGWMGRTPDYKAAFGCALGGTPGFYGQFEQNARNWYTRIQETGLYFNHAIVNPPIDRHLPTDKVKDVYIKLEKETDAGIIVSGAKVVATNSALTHYNMIGFGSAQVMGENPDFALMFVAPMDADGVKLISRASYEMVAGATGSPYDYPLSSRFDENDAILVMDNVLIPWENVLLYRDFDRCRRWTMEGGFARMYPLQACVRLAVKLDFITALLKKSLECTGTLEFRGVQADLGEVVAWRNTFWALSDSMCSEATPWVNGAYLPDHAALQTYRVLAPMAYAKIKNIIERNVTSGLIYLPSSARDLNNPQIDQYLAKYVRGSNGMDHVQRIKILKLMWDAIGSEFGGRHELYEINYSGSQDEIRLQCLRQAQSSGNMDKMMAMVDRCLSEYDQNGWTVPHLHNNDDINMLDKLLK
The Km is the concentration of substrate that gives half-maximal velocity. The kcat is the number of substrate molecules converted per active site and unit of time at saturation. As a reminder, the kcat/Km is the second-order rate constant that governs catalysis at low substrate concentration. B1: the Km is 670 ± 120 µM, the kcat came to 0.0135 s⁻¹ and the kcat/Km is 20 M⁻¹ s⁻¹.
